Measured values: patent US7071384B2, “Methods for commercial production of heterologous laccase in plant tissue and extraction of the laccase from plant seed” (Genencor International, Inc., priority 1997, dated 2006)

Tests used:
[1] = Effect of protease inhibitors on avidin stability in flaked maize kernel extract (biotin binding activity); assay type: physicochemical; details: control avidin dissolved in extraction buffer
Protocol: Dry maize kernels (12% MC; 500 g per batch) were first cracked using a roller mill (Ferrell-Ross, Oklahoma City, Okla.), then flaked to 0.3 mm thickness using Roskamp flaking rolls (Model K, Roskamp Mfg., Inc., Waterloo, Iowa.). The particle size distribution of flaked material was determined by sieving (see Table 1).
Twenty grams of flaked kernels were extracted with 200 ml of Tris-HCl pH 7.9 containing 500 mM NaCl, 1 mM CaCl2 with stirring for 30 min at ambient temperature. One extraction was performed in the absence of protease inhibitors (control) and one in the presence of a protease inhibitor mixture containing 10 mM 2-mercaptoethanol (2-ME), 5 mM ethylenediamine tetraacetic acid (EDTA), 0.1 mM phenylmethanesulfonyl fluoride (PMSF), and 0.2 mM Diazo-N-acetyl-N-Leu-MeO. EDTA and 2-ME were added at the beginning of the extraction, and PMSF and diazo-N-acetyl-N-Leu-MeO were added 15 minutes after the extraction began. The insoluble residue was separated by centrifugation at 20,500×g for 25 minutes at 0° C. The supernatant was filtered through four layers of cheesecloth. […] D: Residual avidin activity in cooked egg white assayed with improved sensitivity. J. Food Sci. 56:707 (1991].and for protein integrity on western blots. For a positive control, chicken egg white avidin (Sigma Chemical Co.) was dissolved in the extraction buffer and samples were taken as above for activity assays.

[2] = Isoelectric point determination; assay type: physicochemical; details: 10 is the highest pI that can be experimentally determined
[3] = Biotin inhibition of HABA binding to avidin; details: competitive binding of biotin and HABA to avidin
Source text: The normalized absorbance value was obtained by subtracting from all the absorbance values, the value at which the absorbance change stopped.
In vivo, avidin exists as a homotetramer and its activity is to bind biotin to protect avian and reptilian eggs from pathogen invasion. Based upon this biotin-binding property, an analog of biotin, HABA, is utilized for the quantification of activity. Using the HABA binding assay, estimates of total avidin amounts in the fractions eluted from the affinity column were identical to estimates made by ELISA.

Ki [3]: 3.2 µM
Substance: egg white: native chicken egg white avidin (Sigma Chemical Co.)
avidin activity in extraction buffer ([1]; 0 h): 88.2 µg/mL | avidin activity in extraction buffer ([1]; 1 h): 62.6 µg/mL | avidin activity in extraction buffer ([1]; 3 h): 61.1 µg/mL | avidin activity in extraction buffer ([1]; 6 h): 60.6 µg/mL | avidin activity in extraction buffer ([1]; 22 h): 59.6 µg/mL | pI [2]: 10
